Assay results from US20220153847A1 (Chugai, published 2022).

T1: HLA-DQ2.5 on HLA-DQ2.5-positive PBMC B cells (human, UniProt P01909 24-254; P01920 33-261)
T1 construct: whole, on cells; also called HLA-DQ2.5+ PBMC B cell
T1 MHC II alpha: not shown
T1 MHC II beta: not shown


Tests used:
[1] = molecular target: DQ2.5/alpha 2 gliadin peptide on IHW9023 cells (human); assay: cell-based or functional assay
[2] = molecular target: DQ2.5/omega 2 gliadin peptide on IHW9023 cells (human); assay: cell-based or functional assay
[3] = molecular target: DQ2.5/gamma 1 gliadin peptide on IHW9023 cells (human); assay: cell-based or functional assay
[4] = molecular target: DQ2.5/gamma 2 gliadin peptide on IHW9023 cells (human); assay: cell-based or functional assay
[5] = molecular target: DQ2.5/BC hordein peptide on IHW9023 cells (human); assay: cell-based or functional assay
[6] = molecular target: DQ2.5/alpha 1b gliadin peptide on IHW9023 cells (human); assay: cell-based or functional assay
[7] = molecular target: DQ2.5/gamma 4a gliadin peptide on IHW9023 cells (human); assay: cell-based or functional assay
[8] = molecular target: T2, HLA-DQ2.5/CLIP peptide complex on Ba/F3 cells (human); assay: FACS, Ba/F3 cells; IC17=0%, DQN0139bb=100%;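 further: flow cytometric binding of anti-HLA-DQ antibodies, each applied at 5 µg/mL for 30 min at room temperature, to Ba/F3 cell lines displaying HLA-DQ–peptide complexes; antibody tested at 5 microgram/mL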
T2 construct: whole, on cells; also called Ba/F3-HLA-DQ2.5/CLIP
Source text: (§1) The binding of anti-HLA-DQ antibodies to Ba/F3-HLA-DQ2.5, Ba/F3-HLA-DQ2.2, Ba/F3-HLA-DQ7.5, Ba/F3-HLA-DQ8, Ba/F3-HLA-DQ5.1, Ba/F3-HLA-DQ6.3, Ba/F3-HLA-DQ7.3, Ba/F3-HLA-DR, Ba/F3-HLA-DP, Ba/F3-HLA-DQ2.5/CLIP, Ba/F3-HLA-DQ2.5/HBV, Ba/F3-HLA-DQ2.5/Salmonella, Ba/F3-HLA-DQ2.5/TPO, Ba/F3-HLA-DQ2.5/M. bovis, Ba/F3-HLA-DQ2.5/alpha 1 gliadin, Ba/F3-HLA-DQ2.5/alpha 2 gliadin, Ba/F3-HLA-DQ2.5/gamma 1 gliadin, Ba/F3-HLA-DQ2.5/gamma 2 gliadin, Ba/F3-HLA-DQ2.5/omega 1 gliadin, Ba/F3-HLA-DQ2.5/omega 2 gliadin, Ba/F3-HLA-DQ2.5/BC hordein, Ba/F3-HLA-DQ2.5/alpha 3 gliadin, Ba/F3-HLA-DQ2.5/alpha 1b gliadin, Ba/F3-HLA-DQ2.5/gamma 4b gliadin, Ba/F3-HLA-DQ2.5/avenin 1, Ba/F3-HLA-DQ2.5/avenin 2, Ba/F3-HLA-DQ2.5/avenin 3, Ba/F3-HLA-DQ2.5/hordein 1, Ba/F3-HLA-DQ2.5/hordein 2, Ba/F3-HLA-DQ2.5/secalin 1, Ba/F3-HLA-DQ2.5/secalin 2, Ba/F3-HLA-DQ2.5/14mer 1, Ba/F3-HLA-DQ2.5/33mer gliadin, Ba/F3-HLA-DQ2.5/26mer gliadin, was tested. 5 microgram/mL of each of the anti-HLA-DQ antibodies was incubated with each cell line for 30 minutes at room temperature and washed with FACS buffer (2% FBS, 2 mM EDTA in PBS).

[9] = molecular target: T3, HLA-DQ2.5/33mer gliadin peptide complex on Ba/F3 cells (human); assay: FACS, Ba/F3 cells; IC17=0%, DQN0139bb=100%;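 further: flow cytometric binding of anti-HLA-DQ antibodies, each applied at 5 µg/mL for 30 min at room temperature, to Ba/F3 cell lines displaying HLA-DQ–peptide complexes; antibody tested at 5 microgram/mL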
T3 construct: whole, on cells; also called Ba/F3-HLA-DQ2.5/33mer gliadin
Source text: as §1

[10] = molecular target: T4, HLA-DQ2.5/alpha 1 gliadin peptide complex on Ba/F3 cells (human); assay: FACS, Ba/F3 cells; IC17=0%, DQN0139bb=100%;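 further: flow cytometric binding of anti-HLA-DQ antibodies, each applied at 5 µg/mL for 30 min at room temperature, to Ba/F3 cell lines displaying HLA-DQ–peptide complexes; antibody tested at 5 microgram/mL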
T4 construct: whole, on cells; also called Ba/F3-HLA-DQ2.5/alpha 1 gliadin; HLA-DQ2.5/a1 gliadin
Source text: as §1

[11] = molecular target: T5, HLA-DQ2.5/alpha 2 gliadin peptide complex on Ba/F3 cells (human); assay: FACS, Ba/F3 cells; IC17=0%, DQN0139bb=100%;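 further: flow cytometric binding of anti-HLA-DQ antibodies, each applied at 5 µg/mL for 30 min at room temperature, to Ba/F3 cell lines displaying HLA-DQ–peptide complexes; antibody tested at 5 microgram/mL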
T5 construct: whole, on cells; also called Ba/F3-HLA-DQ2.5/alpha 2 gliadin; HLA-DQ2.5/a2 gliadin
Source text: as §1

[12] = molecular target: T6, HLA-DQ2.5/gamma 1 gliadin peptide complex on Ba/F3 cells (human); assay: FACS, Ba/F3 cells; IC17=0%, DQN0139bb=100%
T6 construct: whole, on cells; also called Ba/F3-HLA-DQ2.5/gamma 1 gliadin; HLA-DQ2.5/g1 gliadin
Source text: as §1

[13] = molecular target: T7, HLA-DQ2.5/gamma 2 gliadin peptide complex on Ba/F3 cells (human); assay: FACS, Ba/F3 cells; IC17=0%, DQN0139bb=100%
T7 construct: whole, on cells; also called Ba/F3-HLA-DQ2.5/gamma 2 gliadin; HLA-DQ2.5/g2 gliadin
Source text: as §1

[14] = molecular target: T8, HLA-DQ2.5/omega 1 gliadin peptide complex on Ba/F3 cells (human); assay: FACS, Ba/F3 cells; IC17=0%, DQN0139bb=100%
T8 construct: whole, on cells; also called Ba/F3-HLA-DQ2.5/omega 1 gliadin; HLA-DQ2.5/w1 gliadin
Source text: as §1

[15] = molecular target: T9, HLA-DQ2.5/omega 2 gliadin peptide complex on Ba/F3 cells (human); assay: FACS, Ba/F3 cells; IC17=0%, DQN0139bb=100%
T9 construct: whole, on cells; also called Ba/F3-HLA-DQ2.5/omega 2 gliadin; HLA-DQ2.5/w2 gliadin
Source text: as §1

[16] = molecular target: T10, HLA-DQ2.5/BC hordein peptide complex on Ba/F3 cells (human); assay: FACS, Ba/F3 cells; IC17=0%, DQN0139bb=100%
T10 construct: whole, on cells; also called Ba/F3-HLA-DQ2.5/BC hordein
Source text: as §1

[17] = molecular target: T11, HLA-DQ2.5/alpha 3 gliadin peptide complex on Ba/F3 cells (human); assay: FACS, Ba/F3 cells; IC17=0%, DQN0139bb=100%
T11 construct: whole, on cells; also called Ba/F3-HLA-DQ2.5/alpha 3 gliadin; HLA-DQ2.5/a3 gliadin
Source text: as §1

[18] = molecular target: T12, HLA-DQ2.5/alpha 1b gliadin peptide complex on Ba/F3 cells (human); assay: FACS, Ba/F3 cells; IC17=0%, DQN0139bb=100%
T12 construct: whole, on cells; also called Ba/F3-HLA-DQ2.5/alpha 1b gliadin; HLA-DQ2.5/a1b gliadin
Source text: as §1

[19] = molecular target: T13, HLA-DQ2.5/gamma 4b gliadin peptide complex on Ba/F3 cells (human); assay: FACS, Ba/F3 cells; IC17=0%, DQN0139bb=100%
T13 construct: whole, on cells; also called Ba/F3-HLA-DQ2.5/gamma 4b gliadin; HLA-DQ2.5/g4b gliadin
Source text: as §1

[20] = molecular target: T14, HLA-DQ2.5/avenin 1 peptide complex on Ba/F3 cells (human); assay: FACS, Ba/F3 cells; IC17=0%, DQN0139bb=100%
T14 construct: whole, on cells; also called Ba/F3-HLA-DQ2.5/avenin 1
Source text: as §1

[21] = molecular target: T15, HLA-DQ2.5/avenin 2 peptide complex on Ba/F3 cells (human); assay: FACS, Ba/F3 cells; IC17=0%, DQN0139bb=100%
T15 construct: whole, on cells; also called Ba/F3-HLA-DQ2.5/avenin 2
Source text: as §1

[22] = molecular target: T16, HLA-DQ2.5/hordein 1 peptide complex on Ba/F3 cells (human); assay: FACS, Ba/F3 cells; IC17=0%, DQN0139bb=100%
T16 construct: whole, on cells; also called Ba/F3-HLA-DQ2.5/hordein 1
Source text: as §1

[23] = molecular target: T17, HLA-DQ2.5/hordein 2 peptide complex on Ba/F3 cells (human); assay: FACS, Ba/F3 cells; IC17=0%, DQN0139bb=100%
T17 construct: whole, on cells; also called Ba/F3-HLA-DQ2.5/hordein 2
Source text: as §1

[24] = molecular target: T18, HLA-DQ2.5/secalin 2 peptide complex on Ba/F3 cells (human); assay: FACS, Ba/F3 cells; IC17=0%, DQN0139bb=100%
T18 construct: whole, on cells; also called Ba/F3-HLA-DQ2.5/secalin 2
Source text: as §1

[25] = molecular target: T19, HLA-DQ2.5/14mer 1 peptide complex on Ba/F3 cells (human); assay: FACS, Ba/F3 cells; IC17=0%, DQN0139bb=100%
T19 construct: whole, on cells; also called Ba/F3-HLA-DQ2.5/14mer 1
Source text: as §1

[26] = molecular target: T20, HLA-DQ2.5/26mer gliadin peptide complex on Ba/F3 cells (human); assay: FACS, Ba/F3 cells; IC17=0%, DQN0139bb=100%
T20 construct: whole, on cells; also called Ba/F3-HLA-DQ2.5/26mer gliadin
Source text: as §1

[27] = molecular target: T1, HLA-DQ2.5 on HLA-DQ2.5-positive PBMC B …; assay: FACS, PBMC B cells; IC17=0%, DQN0139bb=100%
[28] = molecular target: DQ2.5/alpha 1 gliadin peptide on IHW9023 cells (human); assay: cell-based or functional assay
[29] = molecular target: DQ2.5/omega 1 gliadin peptide on IHW9023 cells (human); assay: cell-based or functional assay
[30] = molecular target: T21, HLA-DQ2.5/avenin 3 peptide complex on Ba/F3 cells (human); assay: FACS, Ba/F3 cells; IC17=0%, DQN0139bb=100%
T21 construct: whole, on cells; also called Ba/F3-HLA-DQ2.5/avenin 3
Source text: as §1

[31] = molecular target: T22, HLA-DQ2.5/secalin 1 peptide complex on Ba/F3 cells (human); assay: FACS, Ba/F3 cells; IC17=0%, DQN0139bb=100%
T22 construct: whole, on cells; also called Ba/F3-HLA-DQ2.5/secalin 1
Source text: as §1

[32] = molecular target: HLA-DQ2.5/33mer gliadin peptide on IHW9088 cells (human); assay: cell-based or functional assay

T2 sequence (P04233 96-124, chain 2 of 2, other chains not shown): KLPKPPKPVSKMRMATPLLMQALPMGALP

Binder	IC50, Jurkat NFAT-Luc T cell activation [1] [µg/mL]	IC50, Jurkat NFAT-Luc T cell activation [2] [µg/mL]	IC50, Jurkat NFAT-Luc T cell activation [3] [µg/mL]	IC50, Jurkat NFAT-Luc T cell activation [5] [µg/mL]	IC50, Jurkat NFAT-Luc T cell activation [6] [µg/mL]	IC50, Jurkat NFAT-Luc T cell activation [7] [µg/mL]	% MFI [9] [%]	% MFI [10] [%]	% MFI [11] [%]	% MFI [12] [%]	% MFI [14] [%]	% MFI [17] [%]	% MFI [18] [%]	% MFI [19] [%]	% MFI [20] [%]	% MFI [21] [%]	% MFI [22] [%]	% MFI [24] [%]	% MFI [26] [%]	IC50, Jurkat NFAT-Luc T cell activation [28] [µg/mL]	further results
DQN0385ee (antibody, V domains shown, also called DQN0385xx) VH: QEQLEESGGDLVKPGASLTLTCTASGFSFYSSYWICWVRQAPGKGLEWIACIDTGSGSIDYASWVNGRFTISKTSSTTVTLQMTSLTVADTATYFCARDIGIDYNFWGPGTLVTVSS VL: AFELTQTPSFVEAAVGGTVTIKCQATQSISSYLNWYQQKPGQPPKLLIYYASTLASGVPSRFKGSGSGTEFSLTISGVECADAATYYCHYGISYVSFGGGTKVEIK	0.000264	0.000758	0.0217	0.0164	0.64	0.381	56.2	9.7	70.9	57.7	16.5	59.7	20.3	53.6	19.1	28	18.2	32.5	70.8		IC50, Jurkat NFAT-Luc T cell activation [4]: 4.9 µg/mL; % MFI [8]: 4.4%; % MFI [13]: 20.6%; % MFI [15]: 53%; % MFI [16]: 61.8%; % MFI [23]: 71.4%; % MFI [25]: 70.7%; % MFI [27]: 1%
DQN0344xx (antibody, V domains shown) VH: QSLEESGGGLVKPGGTLTLTCTASGFSFSSSYWMCWVRQAPGKGLEWVACVYGGSDTTYYASWTKGRFTISKGSSTTVALQVTSLTAADTATYFCARDPLNYYYYGELNLWGPGTLVTVSS VL: AVVLTQTASPVSAAVGGTVTIRCQATENIYSGLAWYQQKPGQPPKVLIYYVSTLASGVPSRFKGSGSGTEYTLTISGVQCDDAATYYCQTYHDISNVTFGGGTKVEIK	0.00082				0.0272		107	77.1	69.5	0.4	49.5	42.2	66.6	1	60.9	48.6	18.8	37.6	3.2	0.00998	IC50, Jurkat NFAT-Luc T cell activation [29]: 0.0124 µg/mL; % MFI [30]: 48.4%; % MFI [31]: 52.2%
DQN0139bb (antibody, V domains shown) VH: QSLEESGGRLVTPGTALTLTCTVSGFSLSSYAMGWVRQAPGKGLEYIGWTSPGDSAYYASWTKGRFTISRTSTTVELKITSPTTEDTATYFCARDAAYIGHWAFNLWGPGTLVTVSS VL: DVVMTQTPASVSAPVGGTVTINCQASESIYSNLAWYQQKPGQPPKLLIYGASTLESGVPSRVKGSGYGTQFTLTISDLECADAATYYCQQYYGSSSTAFTFGGGTKVEIK	0.0605	0.248	0.119	0.0759	0.0765	0.0769														0.0735	IC50, Jurkat NFAT-Luc T cell activation [29]: 0.0719 µg/mL; IC50 (read off the curve) [32]: ~0.03 microgram/mL
